Measurements: patent US20230340142A1 (SUZHOU NEOLOGICS BIOSCIENCE, published 2023)

Key:
human PD-L1 [1] = target: T1, human PD-L1 (human, UniProt Q9NZQ7 19-238, limits assumed); assay: flow cytometry on MDA-MB-231 cells (PD-L1 on the cell surface), PE-labelled secondary antibody, MFI
T1 construct: also called hPD-L1
Method: (§1) Glycosylation differences in cancer cell lines of different tissue origin may affect the binding affinity between PD-L1 antibody and PD-L1. In this study, five cell lines were selected, namely BT20(Breast), mb-231 (Breast), A375(Melanoma), HCC827(Lung), and RKO(Colon). Cells were re-suspended with FACS buffer (1%BSA in PBS), and 50 µl cell suspension per well was added to the 96-well U-bottom plate (Corning, catalog#3795). The purified antibody to be tested was diluted in gradient, then 50 µl was added to each well and incubated at 4° C. for 1 hour. After washing by FACS buffer for three times, the cells were incubated with PE-labeled fluorescent secondary antibody and incubated at 4° C. for half an hour. Cells were washed three times with FACS buffer and resuspended to 200 uL/ well. The fluorescence signal was detected using Canto II flow cytometry (BD).

human PD-L1 [2] = target: T1, human PD-L1; assay: flow cytometry on RKO cells (PD-L1 on the cell surface), PE-labelled secondary antibody, MFI
Method: as §1

human PD-L1 [3] = target: T1, human PD-L1; assay: flow cytometry on HCC827 cells (PD-L1 on the cell surface), PE-labelled secondary antibody, MFI
Method: as §1

[4] = target: T2, human PD-L1 recombinant protein, PD-L1-his (human, UniProt Q9NZQ7 19-238); assay: Gator BLI; antibody on HFC sensor, PD-L1-his in solution; 1:1 fit
T2 construct: also called PD-L1 with a his-tag; not shown: his-tag
T2 sequence (Q9NZQ7 19-238 limits assumed): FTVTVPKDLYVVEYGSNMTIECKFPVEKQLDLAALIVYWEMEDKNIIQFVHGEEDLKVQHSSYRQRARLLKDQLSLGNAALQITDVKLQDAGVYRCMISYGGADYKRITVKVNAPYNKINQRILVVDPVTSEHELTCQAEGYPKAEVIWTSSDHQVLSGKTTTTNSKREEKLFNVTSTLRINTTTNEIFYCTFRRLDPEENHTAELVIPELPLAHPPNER
Method: PD-L1 antibodies were coupled to the surface of the HFC sensor (Probe Life), and human PD-L1 recombinant protein as the mobile phase was 2 times gradient diluted. The association and dissociation between PD-L1 protein and the antibodies on the surface of the sensor were measured. Specifically, the HFC sensor was prewetted in SD buffer (PBS containing 0.02% Tween-20 and 0.2% BSA) for 5-10 minutes, and then incubated in SD buffer containing antibodies for 1-3 minutes, allowing antibodies to be coupled to the sensor surface. The antibody-coupled HFC sensor was incubated in the SD buffer solution for 1 minute, and then incubated in the buffer solution containing different concentrations of PD-L1-his for 1-5 minutes to measure the association of PD-L1 protein to captured antibody. Finally, the sensor combining the antigen and antibody was incubated in SD buffer for 2-10 minutes to measure PD-L1 protein’s dissociation from sensor. The measured data were fitted using a 1:1 model, and the association rate (Kon) and the dissociation rate (Koff) were calculated. The equilibrium dissociation constant (kD) was calculated by the ratio Koff/Kon.

human PD-L1 [5] = target: T1, human PD-L1; assay: flow cytometry on BT20 cells (PD-L1 on the cell surface), PE-labelled secondary antibody, MFI
Method: as §1

T1 sequence (Q9NZQ7 19-238 limits assumed): as above

B1: Clone B (antibody, V domains shown)
VH: QGQMQQSGAELVKPGASVKLSCKTSGFTFSSSYISWLKQKPGQSLEWIAWIYAGTGGTSYNQKFTGKAQLTVDTPSSTAYMQFSSLTTEDSAIYYCARHEGKYWYFDVWGAGTTVTVSS
VL: QILLTQSPAIMSASPGEKVTMTCSASSSVSYVHWYQQKPGSSPKPWIYDTSNLASGFPARFSGSGSGTSYSLIISSMEAEDAATYYCHQRSSYPWTFGGGTKLEIK
notes: Mouse hybridoma clone
EC50 (read off the curve) (human PD-L1 [1]): ~0.06 mg/L | EC50 (read off the curve) (human PD-L1 [2]): ~0.04 mg/L | EC50 (read off the curve) (human PD-L1 [3]): ~0.05 mg/L | Kd [4]: 5.94 nM | koff [4]: 0.0006 s⁻¹ | kon [4]: 101000 M⁻¹ s⁻¹

B2: Clone C (antibody, V domains shown)
VH: EVQLQQSGADLVKPGASVKLSCTASGFNIKDTYMHWVKQRPEQGLEWIGRIDPANGNTKYDPKFQGKATITTDTSSNTAYLQLSSLTSEDTAVYYCARGLGRWFAYWGQGTLVTVSA
VL: DIVMTQSHKFMSTSVGDRVSITCKASQDVSNAVAWYQQKPGQSPELLIYSASNRYTGVPDRFTGSGSGTDFTFTISSVQAEDLAVYYCQQHDSTPLTFGAGTKLELK
notes: Mouse hybridoma clone
EC50 (read off the curve) (human PD-L1 [1]): ~0.03 mg/L | EC50 (read off the curve) (human PD-L1 [2]): ~0.02 mg/L | EC50 (read off the curve) (human PD-L1 [3]): ~0.03 mg/L | EC50 (read off the curve) (human PD-L1 [5]): ~0.02 mg/L | Kd [4]: 4.32 nM | koff [4]: 0.00101 s⁻¹ | kon [4]: 234000 M⁻¹ s⁻¹

B3: Clone D (antibody, V domains shown)
VH: EVQLQQSGPELVKPGASMKISCKASGYSFTGYTMNWVKQSHGKNLEWIGLIIPYNGGISYNQKFKDKATLTVDKSSSTAYMELLSLTSEDSAVYYCASLITTAPRDSMDYWGQGTSVTVSS
VL: DIQMTQTTSSLSASLGDRVTISCRASQDISNYLNWYQQKPDGSVKLLIYYTSKLHSGVPSRFSGSGSGTDYSLTISNLEQEDIATYFCQQGDALPWTFGGGTKLEIK
notes: Mouse hybridoma clone
EC50 (read off the curve) (human PD-L1 [1]): ~0.03 mg/L | EC50 (read off the curve) (human PD-L1 [2]): ~0.02 mg/L | EC50 (read off the curve) (human PD-L1 [3]): ~0.02 mg/L | EC50 (read off the curve) (human PD-L1 [5]): ~0.01 mg/L | Kd [4]: 3.68 nM | koff [4]: 0.000826 s⁻¹ | kon [4]: 225000 M⁻¹ s⁻¹

B4: Clone N (antibody, V domains shown)
VH: EVQLQQSGPELVKPGASMKISCKASGYSFTGYTMNWVKQSHGKNLEWIGLIIPHNGGTSYNQKFKDKATLTVDKSSRTAYMELLSLTSEDSAVYYCASLMTTAPRDSMDYWGQGTSVTVSS
VL: DIQMTQTTSSLSASLGDRVTISCRASQDISNYLNWYQQKPDGTVKLLIYYTSRLHSGVPSRFSGSGSGTDYSLTISNLDQEDIATYFCQQGATLPWTFGGGTKLEIK
notes: Mouse hybridoma clone
EC50 (read off the curve) (human PD-L1 [1]): ~0.03 mg/L | EC50 (read off the curve) (human PD-L1 [2]): ~0.03 mg/L | EC50 (read off the curve) (human PD-L1 [3]): ~0.02 mg/L | EC50 (read off the curve) (human PD-L1 [5]): ~0.007 mg/L | Kd [4]: 3.52 nM | koff [4]: 0.000582 s⁻¹ | kon [4]: 165000 M⁻¹ s⁻¹
